Among the data in patent US20220259593A1, “CONTROL OF MAMMALIAN GENE DOSAGE USING CRISPR” (The Regents of the University of California, priority 2019, published 2022) are Mean relative activity values, retold here.

B1: cr582 (nucleic acid)
guide: GTTTAAGAGCTAAGCTGGAAACAGCATAGCAAGTTTAAATACGGCTTGTCCGTTATCAACTTCAAAAAGTGGCACCGAGTCGGTGCT
modifications: listed as DNA, chemistry not fully specified
B2: cr467 (nucleic acid)
guide: B1 guide with T34C, C42A, T47A, C60T, C63G, G69A
modifications: listed as DNA, chemistry not fully specified
B3: cr138 (nucleic acid)
guide: B1 guide with T34C, C42A, T47A, C63G, C76G, G82C
modifications: listed as DNA, chemistry not fully specified
B4: cr419 (nucleic acid)
guide: B1 guide with G33C, C42A, T47A, C63G, C73A, G85T
modifications: listed as DNA, chemistry not fully specified
B5: cr743 (nucleic acid)
guide: B1 guide with G33C, C42A, T47A, C63G, A74G, T84C
modifications: listed as DNA, chemistry not fully specified
B6: cr335 (nucleic acid)
guide: B1 guide with C42A, T47A, C63G, G72A, A74G, T84C, C86T
modifications: listed as DNA, chemistry not fully specified
B7: cr708 (nucleic acid)
guide: B1 guide with C42A, G43T, T47A, C51A, C63G
modifications: listed as DNA, chemistry not fully specified
B8: cr314 (nucleic acid)
guide: B1 guide with T34G, C42A, T47A, C63G, C73A, G85T
modifications: listed as DNA, chemistry not fully specified
B9: cr202 (nucleic acid)
guide: B1 guide with G33C, C42A, T47A, C63G, G72A, C86T
modifications: listed as DNA, chemistry not fully specified
B10: cr197 (nucleic acid)
guide: B1 guide with C42A, G43T, T47A, C51A, T62G, C63G, A67C
modifications: listed as DNA, chemistry not fully specified
B11: cr422 (nucleic acid)
guide: B1 guide with C42A, T47A, C63G, C73T, G83T, G85C
modifications: listed as DNA, chemistry not fully specified
B12: cr107 (nucleic acid)
guide: B1 guide with C42A, G43T, T47A, C51A, C63G, C75A, G83T
modifications: listed as DNA, chemistry not fully specified
B13: cr438 (nucleic acid)
guide: B1 guide with A31C, T47A, A55G, C63G
modifications: listed as DNA, chemistry not fully specified
B14: cr741 (nucleic acid)
guide: B1 guide with A28G, T47A, T49A, C63G
modifications: listed as DNA, chemistry not fully specified
B15: cr764 (nucleic acid)
guide: B1 guide with G33C, C42A, T47A, C63G
modifications: listed as DNA, chemistry not fully specified
B16: cr193 (nucleic acid)
guide: B1 guide with C42A, G43A, T47A, C51T, C60T, C63G, G69A, G72C, C86G
modifications: listed as DNA, chemistry not fully specified
B17: cr045 (nucleic acid)
guide: B1 guide with G1T, A6T, C42A, T47A, C63G
modifications: listed as DNA, chemistry not fully specified
B18: cr298 (nucleic acid)
guide: B1 guide with C42A, T47A, G52T, C63G, G79C
modifications: listed as DNA, chemistry not fully specified
B19: cr498 (nucleic acid)
guide: B1 guide with A39T, C42A, T47A, C63G
modifications: listed as DNA, chemistry not fully specified
B20: cr050 (nucleic acid)
guide: B1 guide with G1C, A6G, C42A, T47A, C63G
modifications: listed as DNA, chemistry not fully specified
B21: cr061 (nucleic acid)
guide: B1 guide with T4C, G7C, C42A, T47A, C63G
modifications: listed as DNA, chemistry not fully specified
B22: cr526 (nucleic acid)
guide: B1 guide with C42A, G43T, T47A, C51A, C63G, A74G, T84C
modifications: listed as DNA, chemistry not fully specified
B23: cr222 (nucleic acid)
guide: B1 guide with T34G, C42A, T47A, A59G, C63G, T70C
modifications: listed as DNA, chemistry not fully specified
B24: cr625 (nucleic acid)
guide: B1 guide with T34C, C42A, T47A, C63G, G77T, C81A
modifications: listed as DNA, chemistry not fully specified
B25: cr115 (nucleic acid)
guide: B1 guide with C42A, G43T, T47A, C51A, T62C, C63G, A67G
modifications: listed as DNA, chemistry not fully specified
B26: cr738 (nucleic acid)
guide: B1 guide with A32T, A41T, C42A, T47A, C63G
modifications: listed as DNA, chemistry not fully specified
B27: cr078 (nucleic acid)
guide: B1 guide with A5T, A6G, C42A, T47A, C63G
modifications: listed as DNA, chemistry not fully specified
B28: cr776 (nucleic acid)
guide: B1 guide with C42A, T47A, A59T, T62A, C63G, A67T, T70A
modifications: listed as DNA, chemistry not fully specified
B29: cr188 (nucleic acid)
guide: B1 guide with C42A, G43T, T47A, C51A, T61C, C63G, A68G
modifications: listed as DNA, chemistry not fully specified
B30: cr681 (nucleic acid)
guide: B1 guide with C42A, T47A, G48C, C57T, C63G
modifications: listed as DNA, chemistry not fully specified
B31: cr465 (nucleic acid)
guide: B1 guide with T34C, C42A, C45A, T47A, G48T, C63G
modifications: listed as DNA, chemistry not fully specified
B32: cr208 (nucleic acid)
guide: B1 guide with C42A, T47A, G52T, T54C, C63G, A66G
modifications: listed as DNA, chemistry not fully specified
B33: cr211 (nucleic acid)
guide: B1 guide with C42A, G44T, T47A, C63G
modifications: listed as DNA, chemistry not fully specified
B34: cr928 (nucleic acid)
guide: B1 guide with A31T, A41G, C42A, T47A, T54A, C63G
modifications: listed as DNA, chemistry not fully specified
B35: cr767 (nucleic acid)
guide: B1 guide with T34A, C42A, T47A, C63G, A78T
modifications: listed as DNA, chemistry not fully specified
B36: cr514 (nucleic acid)
guide: B1 guide with G33C, C42A, T47A, C63G, C73G, G85C
modifications: listed as DNA, chemistry not fully specified
B37: cr097 (nucleic acid)
guide: B1 guide with T2C, A6C, C42A, T47A, C63G
modifications: listed as DNA, chemistry not fully specified
B38: cr241 (nucleic acid)
guide: B1 guide with G33C, C42A, T47A, T61A, C63G, A68T
modifications: listed as DNA, chemistry not fully specified
B39: cr677 (nucleic acid)
guide: B1 guide with A41T, C42A, T47A, C63G
modifications: listed as DNA, chemistry not fully specified

Where a chain is given by its changes, count along the chain named.

In this series the test system is K562 CRISPRi cells. The series is described as follows: Constant region variant library pooled growth screen, K562. The note with it: sgRNA constant region variants; activity relative to the original, un-modified constant region cr995. The class given is cell-based, human. Summed up:
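Growth screens in K562 CRISPRi cells were harvested 4-8 days post-selection at >2000× library coverage. Each variant's phenotype was referenced to the unmodified constant region with the same targeting sequence.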
For the molecule B1, the Mean relative activity stood at 0.07315. Next, B2: 0.06565.

As to B3, the Mean relative activity is given as 0.04307. To B4 belongs 0.05682; to B5, 0.03495; to B6, 1.036.

On to B7, for which the Mean relative activity was determined as 0.0394.

The molecule B8 returned a Mean relative activity of 0.03303. Next, B9: 0.03423. To B10 belongs 0.06436.

On to B11, for which the Mean relative activity is on record as 0.0493. To B12 belongs 0.03837. Next, B13: 0.06886; B14: 0.06347; B15: 0.04863. For the molecule B16, the Mean relative activity was 0.06081. B17: the Mean relative activity was found to be 0.04839. The molecule B18 displayed a Mean relative activity of 0.06335.

Turning to B19, the Mean relative activity was determined as 0.03563.

For B20, the Mean relative activity was found to be 0.04785. In the case of B21, the Mean relative activity turned out to be 0.05691. To B22 belongs 0.03359; to B23, 0.03915; to B24, 0.04332. To B25 belongs 0.05506; to B26, 0.03306. Regarding B27, the Mean relative activity stood at 0.03507. Next, B28: 1.037; B29: 0.04409; B30: 0.03559.

In turn, B31 showed a Mean relative activity of 0.04864. Next, B32: 0.03711; B33: 0.04075; B34: 0.05583. To B35 belongs 0.0381; to B36, 0.05776; to B37, 0.06585. B38 yielded a Mean relative activity of 0.03304.

B39 registered a Mean relative activity of 0.04623.
